Measurements published in patent publication US20190100591A1 (ITEOS BELGIUM, published 2019).

T1: human TIGIT expressed on cells (human, UniProt Q495A1 22-244)
T1 construct: whole, on cells; on Jurkat E6.1 cells transduced with human TIGIT, on Promega TIGIT effector cells or on human primary T cells; the cell is named under assay; also called hTIGIT; Jurkat-hTIGIT
T1 sequence (looked up): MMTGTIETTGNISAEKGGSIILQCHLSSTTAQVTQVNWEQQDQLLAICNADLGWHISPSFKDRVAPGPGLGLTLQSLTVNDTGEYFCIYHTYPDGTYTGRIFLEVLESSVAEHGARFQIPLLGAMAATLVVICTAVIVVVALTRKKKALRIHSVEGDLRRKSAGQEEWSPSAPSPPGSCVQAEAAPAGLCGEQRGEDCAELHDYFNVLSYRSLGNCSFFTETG

T2: recombinant human TIGIT protein (human, UniProt Q495A1 22-141, limits assumed)
T2 construct: also called hTIGIT (Creative Biomart); antigen
T2 sequence (looked up): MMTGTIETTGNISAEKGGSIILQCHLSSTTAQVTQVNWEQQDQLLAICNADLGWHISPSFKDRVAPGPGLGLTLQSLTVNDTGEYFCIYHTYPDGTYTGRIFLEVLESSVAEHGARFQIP


Assays:
[1] = target: Polyspecificity Reagent (PSR); assay: flow cytometry, IgG presented on yeast, biotinylated PSR, normalised MFI
[2] = target: T1, human TIGIT expressed on cells; assay: flow cytometry, human primary CD8+ T cells (healthy PBMC), MFI on TIGIT+CD8+
[3] = target: T1, human TIGIT expressed on cells; assay: flow cytometry, Jurkat-hTIGIT, MFI; end of the range tied to 313M32 by Table 16
[4] = target: T2, recombinant human TIGIT protein; assay: Biacore T200 SPR, IgG captured, steady state model
[5] = target: T1, human TIGIT expressed on cells; assay: flow cytometry, CD8+ T cells from cancer patient PBMC, MFI on TIGIT+CD8+
Method: Cells were distributed at 1×10^5 cells per well. […] Then, cells were washed and incubated with the following antibodies and life viability dye (LVD) mix: anti-CD4-PercP-Cy5.5 (clone A161A1, BioLegend 357414); anti-CD8-BV510 (clone SK1, BD Bioscience 563919) and LVD efluor 520 (eBioscience 65-0867-14). Cells were washed and fixed and surface staining was quantified using BD LSR Fortessa. Flow cytometry data was analysed using FlowJo V10.1. TIGIT MFI on gated LVD-TIGIT+CD8+ cells was used to calculate EC50 values.

[6] = target: T1, human TIGIT expressed on cells; assay: flow cytometry, Jurkat-hTIGIT, MFI
Method: Antibodies were incubated with the cells for 20 min at 4° C. in FACS buffer. […] Fluorescence intensity was analysed using LSR BD Fortessa and cell binding was recorded as the median fluorescence intensity of PE in cells expressing TIGIT at their surface.
The half-maximal concentration of binding (EC50) to Jurkat-hTIGIT was calculated using a four-variable curve-fit equation in Prism.

[7] = target: T1, human TIGIT expressed on cells; assay: FACS competition on Jurkat-hTIGIT; competitor CD155-His 15 ug/ml

Polyspecificity Reagent (PSR) Score (0-1) [1] | Binder | other results
0 score (0-1) | anti-TIGIT antibody clone 26486 (antibody, V domains shown) VH: QVQLQESGPGLVKPSETLSLTCAVSGYSISSGYYWAWIRQPPGKGLEWIGSIYHSGSTYYNPSLKSRVTISVDTSKNQFSLKLSSVTAADTAVYYCAIEGANYYDFGYVAFDIWGQGTMVTVSS VL: EIVMTQSPATLSVSPGERATLSCRASQSVSSNLAWYQQKPGQAPRLLIYGASTRATGIPARFSGSGSGTEFTLTISSLQSEDFAVYYCQQSPPWPRTFGGGTKVEIK | 
0.1 score (0-1) | anti-TIGIT antibody clone 29499 (antibody, V domains shown) VH: QLQLQESGPGLVKPSETLSLTCTVSGGSISSSRYYWAWIRQPPGKGLEWIGSIGTSGSTYYNPSLKSRVTISVDTSKNQFSLKLSSVTATDTAVYYCAIEGANFRDFGYVAFDIWGQGTMVTVSS VL: EIVMTQSPATLSVSPGERATLSCRASQSVSSNLAWYQQKPGQAPRLLIYGASTRATGIPARFSGSGSGTEFTLTISSLQSEDFAVYYCQQSPPWPRTFGGGTKVEIK | 
0 score (0-1) | anti-TIGIT antibody clone 29494 (antibody, V domains shown) VH: QVQLQESGPGLVKPSETLSLTCTVSGGSISSGSYYLAWIRQPPGKGLEWIGSIFRSGSTYYNPSLESRVTISVDTSKNQFSLKLSSVTAADTAVYYCAIEGANFKDFGYVAFDIWGQGTMVTVSS VL: EIVMTQSPATLSVSPGERATLSCRASQSVSSNLAWYQQKPGQAPRLLIYGASTRATGIPARFSGSGSGTEFTLTISSLQSEDFAVYYCQQSPPWPRTFGGGTKVEIK | 
0 score (0-1) | anti-TIGIT antibody clone 32931 (antibody, V domains shown) VH: QLQLQESGPGLVKPSETLSLTCTVSGGSISSGSYYLAWIRQPPGKGLEWIGSIFRSGSTYYNPSLESRVTISVDTSKNQFSLKLSSVTAADTAVYYCAIEGANFKDFGYVAFDIWGQGTTVTVSS VL: EIVMTQSPATLSVSPGERATLSCRASKSVSSNLAWYQQKPGQAPRLLIYFASTRATGIPARFSGSGSGTEFTLTISSLQSEDFAVYYCQQTSPWPRTFGGGTKVEIK | 
0 score (0-1) | anti-TIGIT antibody clone 31288 (antibody, V domains shown) VH: QLQLQESGPGLVKPSETLSLTCTVSGGSISSGSYYLAWIRQPPGKGLEWIGSIFRSGSTYYNPSLESRVTISVDTSKNQFSLKLSSVTAADTAVYYCAIEGANFKDFGYVAFDIWGQGTTVTVSS VL: EIVMTQSPATLSVSPGERATLSCRASQSVSSNLAWYQQKPGQAPRLLIYGASTRATGIPARFSGSGSGTEFTLTISSLQSEDFAVYYCQQSPPWPRTFGGGTKVEIK | 
0 score (0-1) | anti-TIGIT antibody clone 26493 (antibody, V domains shown) VH: EVQLVESGGGLVQPGRSLRLSCAASGFTFGDYAMHWVRQAPGKGLEWVSGITWNSGSIGYADSVKGRFTISRDNAKNSLYLQMNSLRAEDTALYYCAKPVPKSRGLDVWGQGTMVTVSS VL: DIQLTQSPSSVSASVGDRVTITCRASQGISSWLAWYQQKPGKAPKLLIYGASSLQSGVPSRFSGSGSGTDFTLTISSLQPEDFATYYCQQAFYLPWTFGGGTKVEIK | 
0.12 score (0-1) | anti-TIGIT antibody clone 29527 (antibody, V domains shown) VH: QVQLVESGGGVVQPGRSLRLSCAASGFTFSSSYMHWVRQAPGKGLEWVAVIGADGSNKYYADSVEGRFTISRDNSKNTLYLQMNSLRAEDTALYYCAKPVPRRRGLDVWGQGTMVTVSS VL: DIQLTQSPSSVSASVGDRVTITCRASQGISSWLAWYQQKPGKAPKLLIYGASSLQSGVPSRFSGSGSGTDFTLTISSLQPEDFATYYCQQAFYLPWTFGGGTKVEIK | 
0.32 score (0-1) | anti-TIGIT antibody clone 29520 (antibody, V domains shown) VH: QVQLVESGGGLVQPGRSLRLSCAASGFTFRDYAMHWVRQAPGKGLEWVSGITWNSGLIGYADSVKGRFTISRDNAKNSLYLQMNSLRAEDTALYYCAKPVPRLRGLDVWGQGTMVTVSS VL: DIQLTQSPSSVSASVGDRVTITCRASQGISSWLAWYQQKPGKAPKLLIYGASSLQSGVPSRFSGSGSGTDFTLTISSLQPEDFATYYCQQAFYLPWTFGGGTKVEIK | 
0.12 score (0-1) | anti-TIGIT antibody clone 29523 (antibody, V domains shown) VH: EVQLVESGGGVVQPGRSLRLSCAASGFTFGSYYMHWVRQAPGKGLEWVAVIWPDGSNKLYADSVKGRFTISRDNSKNTLYLQMNSLRAEDTALYYCAKPVPKSRALDVWGQGTMVTVSS VL: DIQLTQSPSSVSASVGDRVTITCRASQGISSWLAWYQQKPGKAPKLLIYGASSLQSGVPSRFSGSGSGTDFTLTISSLQPEDFATYYCQQAFYLPWTFGGGTKVEIK | 
0.01 score (0-1) | anti-TIGIT antibody clone 29513 (antibody, V domains shown) VH: QVQLVQSGAEVKKPGSSVKVSCKASGGTFQNYAISWVRQAPGQGLEWMGVIVPIFGTANYAQKFQGRVTVTADESTSTAYMELSSLRSEDTAVYYCARLHLGQKAYYGMDVWGQGTTVTVSS VL: DIQMTQSPSSLSASVGDRVTITCRASQSISSYLNWYQQKPGKAPKLLIYAASSLQSGVPSRFSGSGSGTDFTLTISSLQPEDFATYYCQQRYVFPPTFGGGTKVEIK | 
 | anti-TIGIT antibody 313M32 (antibody, V domains shown) VH: QVQLQESGPGLVKPSETLSLTCAVSGYSITSDYAWNWIRQPPGKGLEWIGYISYSGSTSYNPSLRSRVTISRDTSKNQFFLKLSSVTAADTAVYYCARRQVGLGFAYWGQGTLVTVSS VL: DIQMTQSPSSLSASVGDRVTITCKASQDVSTAVAWYQQKPGKAPKLLIYSASYRYTGVPSRFSGSGSGTDFTFTISSLQPEDIATYYCQQHYSTPWTFGGGTKVEIK | EC50 [2]: 1.45 nM; Fold change of EC50 over EC50 of best clone (31282_wu) [2]: 7.5 fold; EC50 [3]: 0.445 nM; Kd [4]: 10.1 nM; EC50 [5]: 1 nM; Fold change of EC50 over EC50 of best clone (31282) [5]: 8.3 fold; EC50 [6]: 0.44 nM; Fold change of EC50 over EC50 of best clone (31282_wu) [6]: 4.2 fold; Fold change of IC50 over IC50 of best clone (31282_up) [7]: 16.7 fold; IC50 [7]: 0.65 nM
